Data: the supplement of paper PMC12783771
± gives the standard deviation of the averaged measurements.

B1: library; numbered along this chain (parent)
chain: MNIQIGELAKRTACPVVTIRFYEQEGLLPPPGRSRGNFRLYGEEHVERLQFIRHCRSLDMPLSDVRTLLSYRKRPDQDCGEVNMLLDEHIRQVESRIGALLELKHHLVELREACSGARPAQSCGILQGLSDCVCDTRGTTAHPSD

Assays:
[1] = variants of: B1; experiment: sfGFP reporter fluorescence (15 h) (µM FITC); higher = higher leak; conditions: library round: Round 1; ligand: none
Protocol: (§1)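 Cell-free biosensing: 1 µL Echo-assembled CFE reactions with linear PbrR variant templates (5 nM) and pPbrR-sfGFP reporter, with 1 µM Pb, 30 µM Zn or no ligand; endpoint sfGFP fluorescence after 15 h at 30 °C calibrated as µM FITC. Round 1 ML-predicted PbrR mutants; 3 biological replicates.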

[2] = variants of: B1; experiment: sfGFP reporter fluorescence (15 h) (µM FITC); higher = stronger transcriptional activation; conditions: library round: Round 1
Protocol: as §1

Row | Variant | sfGFP reporter fluorescence [1] | sfGFP reporter fluorescence ([2]; ligand: 1 µM Pb) | sfGFP reporter fluorescence ([2]; ligand: 30 µM Zn)
1 | H105E | 0.0625 ± 0.0011 | 0.06829 ± 0.00056 | 0.31 ± 0.016
2 | L107C C134I | 0.731 ± 0.13 | 1.15 ± 0.15 | 2.12 ± 0.21
3 | L107C D131A | 0.73 ± 0.082 | 1.4 ± 0.048 | 2.23 ± 0.17
4 | L107C E109H | 0.16 ± 0.0068 | 0.673 ± 0.092 | 1.68 ± 0.14
5 | L107C E109Q G128I | 0.54 ± 0.0092 | 1.09 ± 0.29 | 2.1 ± 0.28
6 | L107C G124A G128M | 0.371 ± 0.0094 | 1.13 ± 0.051 | 2.08 ± 0.19
7 | L107C G128H | 0.132 ± 0.0069 | 0.409 ± 0.075 | 1.66 ± 0.14
8 | L107C G128I D131C | 0.657 ± 0.018 | 1.26 ± 0.22 | 1.77 ± 0.23
9 | L107C G128I D135A P143K | 0.787 ± 0.091 | 1.52 ± 0.079 | 2.47 ± 0.14
10 | L107C G128I D135S | 2.64 ± 0.069 | 3.9 ± 0.36 | 4.376 ± 0.041
11 | L107C G128I P143A | 0.52 ± 0.062 | 1.09 ± 0.32 | 2.25 ± 0.092
12 | L107C R111L G128M | 0.333 ± 0.022 | 1.15 ± 0.33 | 2.19 ± 0.32
13 | L107E G128I | 0.0629 ± 0.0025 | 0.0633 ± 0.0023 | 0.0621 ± 0.0022
14 | L107I C114R | 0.059 ± 0.0019 | 0.0512 ± 0.0044 | 0.0514 ± 0.00092
15 | L107I P143R | 0.06365 ± 0.00021 | 0.0775 ± 0.0077 | 0.473 ± 0.02
16 | L107N G128M | 0.0744 ± 0.0042 | 0.225 ± 0.02 | 0.917 ± 0.088
17 | V108E E109H | 0.0605 ± 0.0011 | 0.0687 ± 0.003 | 0.224 ± 0.01
18 | V108I D131C | 0.0613 ± 0.0026 | 0.0713 ± 0.0046 | 0.134 ± 0.0021
19 | V108L C114L | 0.05962 ± 0.00056 | 0.0571 ± 0.003 | 0.0589 ± 0.0018
20 | V108L R111L | 0.0611 ± 0.00085 | 0.0617 ± 0.0045 | 0.114 ± 0.0047
21 | V108R P143M | 0.0636 ± 0.002 | 0.0724 ± 0.0057 | 0.376 ± 0.019
22 | E109A D131C | 0.0641 ± 0.0019 | 0.0804 ± 0.0035 | 0.462 ± 0.0051
23 | E109A R111L | 0.06463 ± 0.00021 | 0.0688 ± 0.0022 | 0.1654 ± 0.00092

Row | Variant | sfGFP reporter fluorescence [1] | sfGFP reporter fluorescence ([2]; ligand: 1 µM Pb) | sfGFP reporter fluorescence ([2]; ligand: 30 µM Zn)
24 | E109D D135R | 0.06377 ± 0.00037 | 0.0733 ± 0.0076 | 0.422 ± 0.031
25 | E109H D131C | 0.0634 ± 0.0019 | 0.0764 ± 0.0062 | 0.159 ± 0.017
26 | E109H D135A | 0.0629 ± 0.00092 | 0.0832 ± 0.011 | 0.254 ± 0.02
27 | E109I R111L | 0.0627 ± 0.0016 | 0.0717 ± 0.003 | 0.217 ± 0.0064
28 | E109L D135P | 0.0655 ± 0.0031 | 0.102 ± 0.0041 | 0.497 ± 0.027
29 | E109L D135R | 0.0677 ± 0.0015 | 0.0959 ± 0.0042 | 0.406 ± 0.061
30 | E109L G128H P143L | 0.0639 ± 0.00092 | 0.0852 ± 0.0089 | 0.204 ± 0.018
31 | L110I D135A | 0.0608 ± 0.00097 | 0.0588 ± 0.0053 | 1.94 ± 0.1
32 | L110I R111A | 0.0628 ± 0.00092 | 0.0635 ± 0.0042 | 0.415 ± 0.045
33 | R111A D131N | 0.066 ± 0.0013 | 0.117 ± 0.018 | 0.829 ± 0.15
34 | R111F E112A | 0.05962 ± 0.00021 | 0.0657 ± 0.00092 | 0.22 ± 0.021
35 | R111I C134P | 0.0589 ± 0.0022 | 0.0683 ± 0.0031 | 0.228 ± 0.0041
36 | R111I G128I | 0.0666 ± 0.0015 | 0.127 ± 0.0043 | 0.695 ± 0.036
37 | R111L G128I | 0.0666 ± 0.0024 | 0.0985 ± 0.0091 | 0.528 ± 0.024
38 | R111L G128P | 0.0584 ± 0.0015 | 0.0568 ± 0.0028 | 0.0542 ± 0.0045
39 | R111V P143T | 0.0627 ± 0.002 | 0.0715 ± 0.0029 | 0.25 ± 0.011
40 | E112I D131C | 0.06499 ± 0.00042 | 0.0652 ± 0.002 | 0.083 ± 0.0019
41 | E112I D135A | 0.063 ± 0.0023 | 0.06438 ± 0.00042 | 0.176 ± 0.0035
42 | S115G D131C | 0.0572 ± 0.0013 | 0.0619 ± 0.0016 | 0.0992 ± 0.0037
43 | Q121A D135A | 0.0661 ± 0.0031 | 0.0888 ± 0.0096 | 0.743 ± 0.11
44 | I125L D131A D135A | 0.065 ± 0.0029 | 0.0661 ± 0.0051 | 0.0699 ± 0.0045
45 | I125L D131C | 0.06 ± 0.0018 | 0.0617 ± 0.0015 | 0.0593 ± 0.0014
46 | L126I D131C | 0.0635 ± 0.0019 | 0.0635 ± 0.0022 | 0.0699 ± 0.0022

Row | Variant | sfGFP reporter fluorescence [1] | sfGFP reporter fluorescence ([2]; ligand: 1 µM Pb) | sfGFP reporter fluorescence ([2]; ligand: 30 µM Zn)
47 | L126I D135A | 0.0632 ± 0.0024 | 0.064 ± 0.0037 | 0.152 ± 0.0059
48 | Q127A D135P | 0.0621 ± 0.0012 | 0.0781 ± 0.0053 | 0.244 ± 0.021
49 | Q127S | 0.0614 ± 0.00076 | 0.0649 ± 0.0047 | 0.118 ± 0.0086
50 | G128A L129M | 0.0617 ± 0.0017 | 0.0701 ± 0.0044 | 0.257 ± 0.034
51 | G128H D131C | 0.0654 ± 0.0018 | 0.0887 ± 0.01 | 0.187 ± 0.02
52 | G128H P143A | 0.061 ± 0.0027 | 0.0728 ± 0.0023 | 0.121 ± 0.0099
53 | G128H P143W | 0.0661 ± 0.0013 | 0.086 ± 0.0043 | 0.159 ± 0.012
54 | G128I C134E | 0.0745 ± 0.0014 | 0.139 ± 0.0047 | 1.38 ± 0.067
55 | G128I D131C | 0.0762 ± 0.0028 | 0.146 ± 0.018 | 0.618 ± 0.011
56 | G128I D131E | 0.0825 ± 0.0029 | 0.203 ± 0.022 | 1.34 ± 0.037
57 | G128I D131S | 0.0878 ± 0.004 | 0.253 ± 0.025 | 1.43 ± 0.2
58 | G128I D135A | 0.0699 ± 0.0036 | 0.12 ± 0.0083 | 0.64 ± 0.032
59 | G128I D135P | 0.074 ± 0.0013 | 0.172 ± 0.013 | 0.904 ± 0.084
60 | G128L C134E | 0.0749 ± 0.0015 | 0.135 ± 0.0039 | 1.36 ± 0.11
61 | G128L D135A | 0.075 ± 0.0011 | 0.155 ± 0.011 | 0.981 ± 0.14
62 | G128S D135A | 0.0652 ± 0.0016 | 0.0925 ± 0.0068 | 0.604 ± 0.015
63 | L129I D131C | 0.0646 ± 0.0017 | 0.0641 ± 0.0044 | 0.07 ± 0.0017
64 | L129M P143T | 0.0636 ± 0.0011 | 0.0636 ± 0.0025 | 0.07306 ± 0.00056
65 | L129V D135A | 0.0641 ± 0.00097 | 0.0619 ± 0.003 | 0.0639 ± 0.0027
66 | D131A C134V | 0.0781 ± 0.0011 | 0.12 ± 0.0056 | 1.24 ± 0.15
67 | D131A D135A | 0.077 ± 0.0023 | 0.184 ± 0.0043 | 2.2 ± 0.17
68 | D131A D135A P143A | 0.0687 ± 0.0035 | 0.0917 ± 0.0098 | 0.487 ± 0.043
69 | D131A D135E | 0.06499 ± 0.00042 | 0.0805 ± 0.0086 | 0.571 ± 0.06

Row | Variant | sfGFP reporter fluorescence [1] | sfGFP reporter fluorescence ([2]; ligand: 1 µM Pb) | sfGFP reporter fluorescence ([2]; ligand: 30 µM Zn)
70 | D131A D135P | 0.0689 ± 0.0013 | 0.119 ± 0.0078 | 0.654 ± 0.017
71 | D131A D135P P143W | 0.0718 ± 0.0029 | 0.122 ± 0.0042 | 0.497 ± 0.081
72 | D131A D135S | 0.0699 ± 0.0026 | 0.0955 ± 0.0012 | 0.604 ± 0.0087
73 | D131A P143L | 0.07208 ± 0.00056 | 0.0969 ± 0.0024 | 0.559 ± 0.0079
74 | D131C D135A | 0.0605 ± 0.0013 | 0.0742 ± 0.0019 | 0.221 ± 0.02
75 | D131C P143A | 0.0583 ± 0.0013 | 0.0696 ± 0.0017 | 0.141 ± 0.011
76 | D131C P143R | 0.0674 ± 0.0018 | 0.0812 ± 0.0024 | 0.196 ± 0.0083
77 | D131F D135A | 0.0667 ± 0.0016 | 0.071 ± 0.0022 | 0.345 ± 0.018
78 | D131H D135A | 0.065 ± 0.00092 | 0.0777 ± 0.0089 | 0.402 ± 0.014
79 | D131H D135K | 0.0669 ± 0.0015 | 0.0876 ± 0.0064 | 0.579 ± 0.071
80 | D131H D135P | 0.0673 ± 0.0015 | 0.0988 ± 0.017 | 0.455 ± 0.04
81 | D131H P143Y | 0.064 ± 0.0022 | 0.0797 ± 0.012 | 0.383 ± 0.0077
82 | D131L D135A | 0.0688 ± 0.0015 | 0.0969 ± 0.027 | 0.476 ± 0.055
83 | D131L D135S | 0.0691 ± 0.0011 | 0.0943 ± 0.002 | 0.588 ± 0.05
84 | D131M D135A | 0.0704 ± 0.005 | 0.0869 ± 0.0074 | 0.573 ± 0.039
85 | D131S C134V | 0.072 ± 0.005 | 0.126 ± 0.0046 | 1.34 ± 0.045
86 | D131S D135A | 0.0649 ± 0.0016 | 0.0893 ± 0.0049 | 0.459 ± 0.015
87 | D131S D135P | 0.0663 ± 0.0043 | 0.105 ± 0.0076 | 0.547 ± 0.082
88 | D131S P143A | 0.0606 ± 0.0013 | 0.07916 ± 0.00037 | 0.373 ± 0.042
89 | D131T D135A | 0.0636 ± 0.0011 | 0.08075 ± 0.00021 | 0.365 ± 0.0092
